Measured values as given in the supplement of paper PMC7877785.
± gives the uncertainty stated by the source.

Test: self-splicing fitness, log relative to wild type (ln ratio); higher = more splicing; Tetrahymena group I intron in knt gene, E. coli kanamycin selection, DiMSum; sequences stand for … in CUCUCU…GGAGGGAAAAGUUAUCAGGCAUGCACCUGGUAGCUAGUCUUUAAACCAAUAGAUUGCAUCGGUUUAAAAGGCAAGACCGUCAAAUUGCGGGAAAGGGGUCAACAGCCGUUCAGUACCAAGUCUCAGGGGAAACUUUGAGAUGGCCUUGCAAAGGGUAUGGUAAUAAGCUGACGGACAUGGUCCUAACCACGCAGCCAAGUCCUAAGUCAACAGAUCUUCUGUUGAUAUGGAUGCAGUUCACAGACUAAAUGUCGGUCGGGGAAGAUGUAUUCUUCUCAUAAGAUAUAGUCGGACCUCUCCUUAAUGGGAGCUAGCGGAUGAAGUGAUGCAACACUGGAGCCGCUGGGAACUAAUUUGUAUGCGAAAGUAUAUUGAUUAGUUUUGGAGUACUCGUGGUCG
In short: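 Fitness was computed with DiMSum as the error-weighted combination of replicate fold changes, kanamycin versus none, each normalised to wild type. The library randomised all eight intron nucleotides of the P1ex region, with the intron placed in the knt kanamycin-resistance gene on pET-22b(+) in E. coli BL21(DE3). Six replicate transformations were grown overnight at 37°C or 30°C on LB agar with or without 25 μg/mL kanamycin, plus 100 μg/mL carbenicillin, 50 μM IPTG and 0.2% rhamnose. Pooled colonies were amplicon-sequenced on an Illumina HiSeq 2500.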

Sequence	self-splicing fitness (ln) (30 °C)	self-splicing fitness (ln) (37 °C)
UUAGAGCAAUAUUACGAACG	-0.913 ± 0.22	-0.303 ± 0.19
UUAGAGCAAUAUUACGAAGU	-3.03 ± 0.21	-1.98 ± 0.28
UUAGAGCAAUAUUACGACGU	-2.39 ± 0.17	-0.776 ± 0.21
UUAGAGCAAUAUUACGAGAG	-0.212 ± 0.24	-1.7 ± 0.24
UUAGAGCAAUAUUACGAUCG	-1.29 ± 0.15	-1.67 ± 0.16
UUAGAGCAAUAUUACGCACC	-3.79 ± 0.33	-2.04 ± 0.4
UUAGAGCAAUAUUACGCAUU	-3.24 ± 0.38	–
UUAGAGCAAUAUUACGCGAC	-3.78 ± 0.37	–
UUAGAGCAAUAUUACGCGCU	-1.84 ± 0.41	-1.11 ± 0.47
UUAGAGCAAUAUUACGCGGA	-1.29 ± 0.1	-0.00507 ± 0.11
UUAGAGCAAUAUUACGCGGU	-2.71 ± 0.25	-2.81 ± 0.48
UUAGAGCAAUAUUACGCUGA	-2.6 ± 0.21	-0.656 ± 0.28
UUAGAGCAAUAUUACGCUUG	-0.891 ± 0.11	0.00726 ± 0.16
UUAGAGCAAUAUUACGGAGC	-3.62 ± 0.29	-2.31 ± 0.22
UUAGAGCAAUAUUACGGCAA	-0.627 ± 0.12	-0.584 ± 0.18
UUAGAGCAAUAUUACGGCUC	-3.52 ± 0.35	-1.68 ± 0.28
UUAGAGCAAUAUUACGGGCA	-2.25 ± 0.12	-1.54 ± 0.18
UUAGAGCAAUAUUACGGGUC	-3.07 ± 0.18	-1.69 ± 0.22
UUAGAGCAAUAUUACGGUCU	-3.05 ± 0.41	-2.66 ± 0.48
UUAGAGCAAUAUUACGUAAU	-2.77 ± 0.31	-1.69 ± 0.36
UUAGAGCAAUAUUACGUGCA	-2.16 ± 0.15	-0.652 ± 0.16
UUAGAGCAAUAUUACGUGCG	-1.28 ± 0.1	-0.87 ± 0.14
UUAGAGCAAUAUUACGUGGG	-3.41 ± 0.22	-1.92 ± 0.17
UUAGAGCAAUAUUACGUGUU	-4.76 ± 0.32	-2.53 ± 0.28
UUAGAGCAAUAUUACGUUAG	-0.978 ± 0.13	0.238 ± 0.21

Sequence	self-splicing fitness (ln) (30 °C)	self-splicing fitness (ln) (37 °C)
UUAUAGCAAUAUUACGACGC	-2.63 ± 0.45	–
UUAUAGCAAUAUUACGAGAA	–	-1.51 ± 0.38
UUAUAGCAAUAUUACGAGGC	-3.95 ± 0.37	-3.71 ± 0.42
UUAUAGCAAUAUUACGAGUU	–	-1.96 ± 0.2
UUAUAGCAAUAUUACGAUAC	–	-1.53 ± 0.27
UUAUAGCAAUAUUACGAUAU	-1.97 ± 0.13	-0.578 ± 0.17
UUAUAGCAAUAUUACGCCAU	-3.93 ± 0.31	-3.15 ± 0.28
UUAUAGCAAUAUUACGCGAC	-2.5 ± 0.19	-1.98 ± 0.2
UUAUAGCAAUAUUACGCGAG	-0.842 ± 0.11	-0.334 ± 0.12
UUAUAGCAAUAUUACGCGUU	-3.58 ± 0.16	-2.16 ± 0.17
UUAUAGCAAUAUUACGGAGC	–	-2.95 ± 0.43
UUAUAGCAAUAUUACGGCAC	-2.82 ± 0.36	-2.51 ± 0.49
UUAUAGCAAUAUUACGGCAG	-0.689 ± 0.094	-0.0118 ± 0.13
UUAUAGCAAUAUUACGGCCU	-1.48 ± 0.18	-1.09 ± 0.23
UUAUAGCAAUAUUACGGGGG	-3.15 ± 0.4	–
UUAUAGCAAUAUUACGGUCU	-3.22 ± 0.25	-1.28 ± 0.22
UUAUAGCAAUAUUACGGUGA	-0.606 ± 0.12	-0.405 ± 0.14
UUAUAGCAAUAUUACGGUUA	-0.941 ± 0.08	-0.0464 ± 0.084
UUAUAGCAAUAUUACGGUUG	-1.32 ± 0.12	-0.629 ± 0.15
UUAUAGCAAUAUUACGUCCG	-1.64 ± 0.17	-1 ± 0.17
UUAUAGCAAUAUUACGUGGU	-3.55 ± 0.35	-3.15 ± 0.35
UUAUAGCAAUAUUACGUUGC	-3.27 ± 0.36	-3.07 ± 0.4
UUAUAGCAAUAUUACGUUGG	-2.91 ± 0.22	-1.86 ± 0.21
UUAUAGCAAUAUUACGUUUU	-3.61 ± 0.25	-2.64 ± 0.28
UUCAAGCAAUAUUACGAAAU	-3.5 ± 0.25	-1.43 ± 0.19

Sequence	self-splicing fitness (ln) (30 °C)	self-splicing fitness (ln) (37 °C)
UUCAAGCAAUAUUACGAGUG	-0.827 ± 0.06	-0.257 ± 0.077
UUCAAGCAAUAUUACGAUGG	-2.38 ± 0.19	-1.95 ± 0.17
UUCAAGCAAUAUUACGCGCU	-1.69 ± 0.12	-1.44 ± 0.13
UUCAAGCAAUAUUACGCUAC	-3 ± 0.25	-1.52 ± 0.26
UUCAAGCAAUAUUACGCUGC	-2.71 ± 0.3	-1.92 ± 0.23
UUCAAGCAAUAUUACGCUGG	-2.29 ± 0.13	-3.05 ± 0.24
UUCAAGCAAUAUUACGCUUA	-1.32 ± 0.096	-1.2 ± 0.096
UUCAAGCAAUAUUACGCUUG	-2.15 ± 0.35	-1.01 ± 0.26
UUCAAGCAAUAUUACGCUUU	-5.08 ± 0.41	-2.37 ± 0.28
UUCAAGCAAUAUUACGUACG	-1.19 ± 0.13	-0.699 ± 0.21
UUCAAGCAAUAUUACGUAGG	-1.53 ± 0.08	-0.995 ± 0.13
UUCAAGCAAUAUUACGUAUG	-3.21 ± 0.22	-1.64 ± 0.17
UUCAAGCAAUAUUACGUCAG	-3.43 ± 0.2	-1.23 ± 0.14
UUCAAGCAAUAUUACGUCAU	-2.97 ± 0.15	-2.59 ± 0.13
UUCAAGCAAUAUUACGUUGA	-2.77 ± 0.21	-2.7 ± 0.21
UUCCAGCAAUAUUACGAAGG	-3.8 ± 0.22	-3.2 ± 0.37
UUCCAGCAAUAUUACGAAUC	-4.37 ± 0.31	-1.09 ± 0.41
UUCCAGCAAUAUUACGACCG	-1.25 ± 0.099	-0.758 ± 0.14
UUCCAGCAAUAUUACGACUG	-3.9 ± 0.21	-2.99 ± 0.23
UUCCAGCAAUAUUACGAGAU	-3.68 ± 0.43	-0.948 ± 0.19
UUCCAGCAAUAUUACGAGGG	-3.28 ± 0.15	-1.28 ± 0.15
UUCCAGCAAUAUUACGAUCA	-1.26 ± 0.2	-1.27 ± 0.2
UUCCAGCAAUAUUACGCACG	-1.72 ± 0.086	-0.884 ± 0.13
UUCCAGCAAUAUUACGCACU	-3.48 ± 0.31	-0.748 ± 0.16
UUCCAGCAAUAUUACGCAGC	-3.77 ± 0.33	-2.31 ± 0.35

Sequence	self-splicing fitness (ln) (30 °C)	self-splicing fitness (ln) (37 °C)
UUCCAGCAAUAUUACGCAUA	-0.568 ± 0.093	0.161 ± 0.096
UUCCAGCAAUAUUACGCCUA	-0.199 ± 0.076	0.206 ± 0.091
UUCCAGCAAUAUUACGCCUC	-1.84 ± 0.21	-0.711 ± 0.29
UUCCAGCAAUAUUACGCCUG	-3.5 ± 0.47	-2.35 ± 0.39
UUCCAGCAAUAUUACGCGAC	-3.35 ± 0.24	-0.902 ± 0.19
UUCCAGCAAUAUUACGCGAU	-2.85 ± 0.21	-1.32 ± 0.18
UUCCAGCAAUAUUACGCGCC	-2.72 ± 0.24	-0.4 ± 0.21
UUCCAGCAAUAUUACGCGCG	-0.776 ± 0.068	-0.688 ± 0.099
UUCCAGCAAUAUUACGCUGU	-3.96 ± 0.24	-2.42 ± 0.22
UUCCAGCAAUAUUACGCUUA	-0.131 ± 0.066	-0.175 ± 0.077
UUCCAGCAAUAUUACGGAUG	-0.779 ± 0.058	0.293 ± 0.076
UUCCAGCAAUAUUACGGCAG	-0.446 ± 0.075	-0.096 ± 0.11
UUCCAGCAAUAUUACGGCCA	-1.08 ± 0.13	0.682 ± 0.16
UUCCAGCAAUAUUACGGCUC	-2.48 ± 0.21	-0.924 ± 0.21
UUCCAGCAAUAUUACGGGCC	-3.91 ± 0.3	-2.34 ± 0.33
UUCCAGCAAUAUUACGGGGC	-3.09 ± 0.32	-2.82 ± 0.34
UUCCAGCAAUAUUACGUACG	-0.796 ± 0.1	-0.902 ± 0.16
UUCCAGCAAUAUUACGUCCA	-1.05 ± 0.12	-0.679 ± 0.14
UUCCAGCAAUAUUACGUCCC	-2 ± 0.33	-1.84 ± 0.3
UUCCAGCAAUAUUACGUGGC	-3.11 ± 0.15	-3.15 ± 0.24
UUCGAGCAAUAUUACGACGG	-1.24 ± 0.11	-0.685 ± 0.1
UUCGAGCAAUAUUACGACUG	-3.35 ± 0.34	-1.48 ± 0.26
